Patent US20190153406
Positions count from the first letter of the chain named. Names may count otherwise.

B1: mouse MG53 S255A mutant (protein)
chain: MSAAPGLLRQELSCPLCLQLFDAPVTAECGHSFCRACLIRVAGEPAADGTVACPCCQAPTRPQALSTNLQLSRLVEGLAQVPQGHCEEHLDPLSIYCEQDRTLVCGVCASLGSHRGHRLLPAAEAQARLKTQLPQQKMQLQEACMRKEKTVAVLEHQLVEVEETVRQFRGAVGEQLGKMRMFLAALESSLDREAERVRGDAGVALRRELSSLNSYLEQLRQMEKVLEEVADKPQTEFLMKFCLVTSRLQKILSEAPPPARLDIQLPVISDDFKFQVWKKMFRALMPALEELTFDPSSAHPSLVVSSSGRRVECSDQKAPPAGEDTRQFDKAVAVVAQQLLSQGEHYWEVEVGDKPRWALGVMAADASRRGRLHAVPSQGLWLLGLRDGKILEAHVEAKEPRALRTPERPPARIGLYLSFADGVLAFYDASNPDVLTPIFSFHERLPGPVYPIFDVCWHDKGKNAQPLLLVGPEQEQA
B2: mouse wild-type MG53 (protein)
chain: B1 chain with A255S
B3: human wild-type MG53 (protein)
chain: MSAAPGLLHQELSCPLCLQLFDAPVTAECGHSFCRACLGRVAGEPAADGTVLCPCCQAPTRPQALSTNLQLARLVEGLAQVPQGHCEEHLDPLSIYCEQDRALVCGVCASLGSHRGHRLLPAAEAHARLKTQLPQQKLQLQEACMRKEKSVAVLEHQLVEVEETVRQFRGAVGEQLGKMRVFLAALEGSLDREAERVRGEAGVALRRELGSLNSYLEQLRQMEKVLEEVADKPQTEFLMKYCLVTSRLQKILAESPPPARLDIQLPIISDDFKFQVWRKMFRALMPALEELTFDPSSAHPSLVVSSSGRRVECSEQKAPPAGEDPRQFDKAVAVVAHQQLSEGEHYWEVDVGDKPRWALGVIAAEAPRRGRLHAVPSQGLWLLGLREGKILEAHVEAKEPRALRSPERRPTRIGLYLSFGDGVLSFYDASDADALVPLFAFHERLPRPVYPFFDVCWHDKGKNAQPLLLVGPEGAEA
B4: human MG53 S255A mutant (protein)
chain: B3 chain with S255A

Experiments:
[1] = target: IRS1 (insulin receptor substrate-1), species not stated
IRS1 (insulin receptor substrate-1), species not stated, sequence (P35568 whole entry): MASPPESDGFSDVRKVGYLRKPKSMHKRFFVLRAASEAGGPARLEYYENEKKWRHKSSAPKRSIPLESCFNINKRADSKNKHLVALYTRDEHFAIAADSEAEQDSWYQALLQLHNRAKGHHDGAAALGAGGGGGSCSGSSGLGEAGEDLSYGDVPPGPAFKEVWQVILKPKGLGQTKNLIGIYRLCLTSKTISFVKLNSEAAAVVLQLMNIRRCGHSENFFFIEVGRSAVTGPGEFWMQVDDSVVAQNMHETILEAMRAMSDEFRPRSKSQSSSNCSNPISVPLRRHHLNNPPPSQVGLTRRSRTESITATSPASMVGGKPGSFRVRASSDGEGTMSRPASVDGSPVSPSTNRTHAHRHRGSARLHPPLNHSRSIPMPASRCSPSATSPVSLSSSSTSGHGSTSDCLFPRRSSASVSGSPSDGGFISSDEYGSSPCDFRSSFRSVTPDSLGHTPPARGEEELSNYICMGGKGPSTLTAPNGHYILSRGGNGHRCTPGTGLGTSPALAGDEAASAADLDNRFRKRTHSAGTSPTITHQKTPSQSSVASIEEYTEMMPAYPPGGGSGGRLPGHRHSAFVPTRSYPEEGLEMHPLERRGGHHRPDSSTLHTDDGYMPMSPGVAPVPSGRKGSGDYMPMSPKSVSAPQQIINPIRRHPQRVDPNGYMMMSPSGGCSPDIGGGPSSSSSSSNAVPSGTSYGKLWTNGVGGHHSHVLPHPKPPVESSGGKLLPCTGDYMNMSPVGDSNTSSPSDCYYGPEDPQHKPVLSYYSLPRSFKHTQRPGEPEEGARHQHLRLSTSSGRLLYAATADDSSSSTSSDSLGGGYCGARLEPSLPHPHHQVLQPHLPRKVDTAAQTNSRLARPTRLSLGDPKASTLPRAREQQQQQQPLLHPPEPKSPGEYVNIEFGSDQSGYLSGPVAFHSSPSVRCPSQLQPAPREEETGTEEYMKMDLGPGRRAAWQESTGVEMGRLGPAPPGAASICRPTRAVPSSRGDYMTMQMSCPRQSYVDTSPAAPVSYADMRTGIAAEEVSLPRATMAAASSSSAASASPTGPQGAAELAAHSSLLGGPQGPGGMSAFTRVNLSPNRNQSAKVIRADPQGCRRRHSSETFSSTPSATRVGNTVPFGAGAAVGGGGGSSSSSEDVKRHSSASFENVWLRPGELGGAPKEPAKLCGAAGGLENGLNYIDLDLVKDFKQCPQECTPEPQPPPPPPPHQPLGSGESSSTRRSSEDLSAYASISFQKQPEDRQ

| Protein | degradation of IRβ, Western Blot, HEK293T co-expression (FIG. 16B) (insulin receptor IR) | degradation of precursor protein of IRβ, HEK293T co-expression (insulin receptor IR) | other results |
| --- | --- | --- | --- |
| B1 | mouse MG53-D-RING truncated mutant and mouse MG53 S255A mutant can hardly mediate IRβ degradation | mouse MG53-D-RING truncated mutant and mouse MG53 S255A mutant almost completely inhibited MG53-mediated degradation | degradation of IRS1, Western Blot, HEK293T co-expression (FIG. 16) [1]: mouse MG53 S255A mutant can only mediate about 40% degradation of IRS1 |
| B2 | Mouse wild-type MG53 can mediate about 50% degradation of IRβ | mouse wild-type MG53 can mediate the degradation of precursor protein of IRβ | MG53-mediated substrate degradation, Western Blot, HEK293T co-expression (FIG. 16) [1]: human or mouse wild-type MG53 can significantly mediate IRS1 degradation |
| B3 |  |  | MG53-mediated substrate degradation, Western Blot, HEK293T co-expression (FIG. 17) [1]: human or mouse wild-type MG53 can significantly mediate IRS1 degradation |
| B4 |  |  | degradation of IRS1, Western Blot, HEK293T co-expression (FIG. 17) [1]: human MG53 S255A mutant can only mediate about 10% degradation of IRS1 |
